Results taken from PMC11796320 (The Febs Journal, 2024).
“And” between values parts separate entries of the source, which are not always exact repeats. Identical values can stand only once.

How the values were obtained:
[1] = target: the molecule itself; test: cryo-EM structure
[2] = target: the molecule itself; test: cryo-EM 2D classification

B1: full-length mature human contactin-2 (CNTN2), residues 29-1012, wild type (natural protein, UniProt Q02246 29-1012, looked up)
chain: LGSQTTFGPVFEDQPLSVLFPEESTEEQVLLACRARASPPATYRWKMNGTEMKLEPGSRHQLVGGNLVIMNPTKAQDAGVYQCLASNPVGTVVSREAILRFGFLQEFSKEERDPVKAHEGWGVMLPCNPPAHYPGLSYRWLLNEFPNFIPTDGRHFVSQTTGNLYIARTNASDLGNYSCLATSHMDFSTKSVFSKFAQLNLAAEDTRLFAPSIKARFPAETYALVGQQVTLECFAFGNPVPRIKWRKVDGSLSPQWTTAEPTLQIPSVSFEDEGTYECEAENSKGRDTVQGRIIVQAQPEWLKVISDTEADIGSNLRWGCAAAGKPRPTVRWLRNGEPLASQNRVEVLAGDLRFSKLSLEDSGMYQCVAENKHGTIYASAELAVQALAPDFRLNPVRRLIPAARGGEILIPCQPRAAPKAVVLWSKGTEILVNSSRVTVTPDGTLIIRNISRSDEGKYTCFAENFMGKANSTGILSVRDATKITLAPSSADINLGDNLTLQCHASHDPTMDLTFTWTLDDFPIDFDKPGGHYRRTNVKETIGDLTILNAQLRHGGKYTCMAQTVVDSASKEATVLVRGPPGPPGGVVVRDIGDTTIQLSWSRGFDNHSPIAKYTLQARTPPAGKWKQVRTNPANIEGNAETAQVLGLTPWMDYEFRVIASNILGTGEPSGPSSKIRTREAAPSVAPSGLSGGGGAPGELIVNWTPMSREYQNGDGFGYLLSFRRQGSTHWQTARVPGADAQYFVYSNESVRPYTPFEVKIRSYNRRGDGPESLTALVYSAEEEPRVAPTKVWAKGVSSSEMNVTWEPVQQDMNGILLGYEIRYWKAGDKEAAADRVRTAGLDTSARVSGLHPNTKYHVTVRAYNRAGTGPASPSANATTMKPPPRRPPGNISWTFSSSSLSIKWDPVVPFRNESAVTGYKMLYQNDLHLTPTLHLTGKNWIEIPVPEDIGHALVQIRTTGPGGDGIPAEVHIVRNGGTSMMVEN
modifications: N-linked glycans at Asn76, Asn198, Asn461, Asn477, Asn498, Asn525 (densities in the cryo-EM map)
Question: How did the “stoichiometry N” value [1] turn out when B1 was run?
Answer: 2

Question: What about the “stoichiometry N” value [2] of the same protein?
Answer: 4 and 6
